We go through seven molecules from paper PMC3860265 (Journal of molecular biology, 2013).

As a reminder, the Ki is the equilibrium dissociation constant of an inhibitor or competing ligand from its target.

Read-outs that look alike come from different tables or passages of the source.

Common to all, as to assay: kinase competition assay
The target in test [1] is T1, CLK1 (mouse, UniProt P22518 1-483).
For test [2], the target named is T2, SRPK1 (UniProt Q96SB4 1-655).
Test [3] addresses T2, SRPK1. The source holds these as a separate data set.
For test [4], the target named is T1, CLK1. This is another data set of the same source.
Test [5] addresses T2, SRPK1. The source holds these as a separate data set.
Test [6] concerns the target T2, SRPK1. This is another data set of the same source.
The target of test [7] is T1, CLK1. The source holds these as a separate data set.

T2 sequence (Q96SB4 whole entry): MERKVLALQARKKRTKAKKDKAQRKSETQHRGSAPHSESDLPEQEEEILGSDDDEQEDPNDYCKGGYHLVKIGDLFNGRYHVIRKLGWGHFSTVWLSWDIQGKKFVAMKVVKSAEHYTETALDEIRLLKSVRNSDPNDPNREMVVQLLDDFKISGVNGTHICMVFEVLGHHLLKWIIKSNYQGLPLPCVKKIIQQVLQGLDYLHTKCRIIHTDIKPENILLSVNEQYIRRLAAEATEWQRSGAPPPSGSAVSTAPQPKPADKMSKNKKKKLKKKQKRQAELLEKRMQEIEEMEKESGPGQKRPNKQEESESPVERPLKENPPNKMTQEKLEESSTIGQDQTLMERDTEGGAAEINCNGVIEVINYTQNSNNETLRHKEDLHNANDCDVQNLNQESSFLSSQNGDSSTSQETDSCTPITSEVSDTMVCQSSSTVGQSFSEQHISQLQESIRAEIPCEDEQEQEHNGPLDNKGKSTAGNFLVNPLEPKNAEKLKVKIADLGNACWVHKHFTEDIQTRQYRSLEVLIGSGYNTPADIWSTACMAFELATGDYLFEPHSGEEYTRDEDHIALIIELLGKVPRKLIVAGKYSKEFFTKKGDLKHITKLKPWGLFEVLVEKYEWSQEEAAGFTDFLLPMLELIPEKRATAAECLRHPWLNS
T1 sequence (P22518 whole entry): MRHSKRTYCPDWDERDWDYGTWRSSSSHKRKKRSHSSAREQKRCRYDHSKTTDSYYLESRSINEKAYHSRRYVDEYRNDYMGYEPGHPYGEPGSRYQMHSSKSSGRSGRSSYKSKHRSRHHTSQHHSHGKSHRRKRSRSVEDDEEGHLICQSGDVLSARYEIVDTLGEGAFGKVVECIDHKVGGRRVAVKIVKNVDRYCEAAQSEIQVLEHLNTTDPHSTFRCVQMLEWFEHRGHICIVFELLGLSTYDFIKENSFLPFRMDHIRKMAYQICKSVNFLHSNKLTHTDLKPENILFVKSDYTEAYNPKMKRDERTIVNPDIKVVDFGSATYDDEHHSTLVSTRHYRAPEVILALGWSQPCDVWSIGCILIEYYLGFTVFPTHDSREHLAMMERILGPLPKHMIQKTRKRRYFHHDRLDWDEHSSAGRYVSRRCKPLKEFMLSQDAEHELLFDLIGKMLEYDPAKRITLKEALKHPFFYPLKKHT

B1: SR(P200,228,235A) (natural protein, UniProt Q07955 1-248, looked up)
chain: MSGGGVIRGPAGNNDCRIYVGNLPPDIRTKDIEDVFYKYGAIRDIDLKNRRGGPPFAFVEFEDPRDAEDAVYGRDGYDYDGYRLRVEFPRSGRGTGRGGGGGGGGGAPRGRYGPPSRRSENRVVVSGLPPSGSWQDLKDHMREAGDVCYADVYRDGTGVVEFVRKEDMTYAVRKLDNTKFRSHEGETAYIRVKVDGPRSASYGRSRSRSRSRSRSRSRSNSRSRSYSARRSRGSARYSPRHSRSRSRT
In test [1], B1 registered a Ki of 130 ± 20 nM and an appKI of 440 ± 70 nM. In test [2], affinity was put at a Ki of 33 ± 3 nM and the appKI was 80 ± 8 nM.
With AYIRVKVDGPRSPSYGRSRSRSRSRSRSRSRSNSRSRSYSPRRSRGSP (domain or fragment, UniProt Q07955 188-235, looked up) [SR(188–235)], the Ki in test [3] is 110 ± 7 nM; in test [4], 120 ± 10 nM. Also, the appKI in test [3] is 170 ± 10 nM; in test [4], 180 ± 20 nM.

B2: SR(RRM2) (domain or fragment)
chain: NRVVVSGLPPSGSWQDLKDHMREAGDVCYADVYRDGTGVVEFVRKEDMTYAVRKLDNTKFRSHEGETAYIRVKVD
Regarding B2, the Ki in test [5] worked out at 2900 ± 500 nM.
On to AYIRVKVDGPRSPSYGRSRSRSRSRSRSRSRSN (domain or fragment, UniProt Q07955 188-220, looked up) [SR(188–220)], for which, in test [3], the affinity, expressed as Ki, was 350 ± 200 nM and the appKI was 520 ± 40 nM. In test [4], the Ki stood at 290 ± 20 nM and the appKI was found to be 440 ± 40 nM.

B3: SR(RRM1-2) (domain or fragment)
chain: MSGGGVIRGPAGNNDCRIYVGNLPPDIRTKDIEDVFYKYGAIRDIDLKNRRGGPPFAFVEFEDPRDAEDAVYGRDGYDYDGYRLRVEFPRSGRGTGRGGGGGGGGGAPRGRYGPPSRRSENRVVVSGLPPSGSWQDLKDHMREAGDVCYADVYRDGTGVVEFVRKEDMTYAVRKLDNTKFRSHEGETAYIRVKVD
In turn, B3 displayed a Ki in test [5] of 170 ± 30 nM.
For the molecule AYIRVKVDGPRSPSYGRSRSRSRSRSRSRSRSNSRSRSYSP (domain or fragment, UniProt Q07955 188-228, looked up) [SR(188–228)], the Ki in test [3] is 190 ± 30 nM; in test [4], 240 ± 30 nM. For the same molecule, the appKI stood at 280 ± 50 nM in test [3] and 370 ± 40 nM in test [4].

B4: SR(ΔRRM2) (domain or fragment)
chain: MSGGGVIRGPAGNNDCRIYVGNLPPDIRTKDIEDVFYKYGAIRDIDLKNRRGGPPFAFVEFEDPRDAEDAVYGRDGYDYDGYRLRVEFPRSGRGTGRGGGGGGGGGAPRGRYGPPSRRSEGPRSPSYGRSRSRSRSRSRSRSRSNSRSRSYSPRRSRGSPRYSPRHSRSRSRT
As to B4, the Ki was determined as 300 ± 100 nM in test [6] and 130 ± 30 nM in test [7].
